Where two headings read alike, the source gives them in different places. Bridges are numbered along the chain shown (N, C = ends). Where no end group is shown, it is not given here.
Assays:
[1] = biological target: T1, CB2R (Homo sapiens, UniProt P34972); type: cell-based
[2] = biological target: T1, CB2R; assay: cell-based; type: cell-based; settings: for decrease of efficacy of 2-AG to recruit β-arrestin-2 / decrease of efficacy of CP55940 to recruit β-arrestin-2: single point, peptide 10 μM; for decrease of efficacy of 2-AG to recruit β-arrestin-2: 2-AG 1 μM; for decrease of efficacy of CP55940 to recruit β-arrestin-2: CP55940 1 μM
[3] = test system: untransfected CHO-K1 cells; assay: cAMP assay in untransfected CHO-K1 cells; type: cell-based; settings: vodo-C1 30 µM; CP55940 and 2-AG 10 µM and 1 µM, alone or with 10 μM vBCL1-4
[4] = biological target: T1, CB2R; assay: cAMP assay; type: cell-based; settings: varying concentrations, inverse agonist control
[5] = biological target: T1, CB2R; assay: cAMP assay in the absence of forskolin; type: cell-based; settings: 10 µM peptide with varying CP55940, no forskolin
[6] = biological target: T1, CB2R; assay: Radioligand displacement of [3H]-CP55940 at human CB2R membrane preparations; type: binding; settings: peptide 100 nM and 10 μM; [3H]-CP55940 0.5 nM mixed with cold CP55940 4.5 nM

T1 sequence (P34972 whole entry): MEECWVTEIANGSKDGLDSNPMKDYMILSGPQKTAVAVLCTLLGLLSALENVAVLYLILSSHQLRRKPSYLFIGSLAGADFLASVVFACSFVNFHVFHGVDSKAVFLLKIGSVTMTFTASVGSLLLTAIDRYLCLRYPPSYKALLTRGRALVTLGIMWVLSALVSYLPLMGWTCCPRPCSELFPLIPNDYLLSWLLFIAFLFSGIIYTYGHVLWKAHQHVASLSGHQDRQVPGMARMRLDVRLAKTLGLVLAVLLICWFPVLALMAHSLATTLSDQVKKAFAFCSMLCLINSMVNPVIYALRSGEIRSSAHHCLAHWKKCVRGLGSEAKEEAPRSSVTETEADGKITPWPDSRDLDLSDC

Row | Compound | changes in cAMP levels in untransfected cells [3] | EC50 fold shift relative to 2-AG ([1]; 10 μM peptide) [fold] | EC50 fold shift relative to WIN55,212-2 ([1]; 10 μM peptide) [fold] | decrease of efficacy of 2-AG to recruit β-arrestin-2 [2] | decrease of efficacy of CP55940 to recruit β-arrestin-2 [2] | also measured
1 | CCCCC/C=C\C/C=C\C/C=C\C/C=C\CCCC(=O)OC(CO)CO [2-AG, 2-arachidonoylglycerol, reference compound] | no changes in cAMP levels | – | – | – | – | EC50 ([1]; EC50 of agonist alone, agonist alone): 480 nM; EC50 [2]: 600 nM
2 | CCCCCCC(C)(C)c1ccc([C@@H]2C[C@H](O)CC[C@H]2CCCO)c(O)c1 [CP55940] | no changes in cAMP levels | – | – | – | – | –
3 | SR144528 | – | – | – | – | – | effect on basal levels of CB2R activity [4]: reduced the basal levels of CB2R activity
4 | vBCL1: vodo-C1-inspired bicyclic loop peptide, loops 1 and 2, 10 residues, cyclized with 1,3,5-tris-(bromomethyl)-benzene (CGETCFTGKC; linker 1-5-10 via 1,3,5‑tris‑(bromomethyl)‑benzene (inferred)) | – | ~6 | ~6 | no or only minor (not significant) changes | no or only minor (not significant) changes | –
5 | vBCL3: vodo-C1-inspired bicyclic loop peptide, loops 5 and 6, 15 residues, cyclized with 1,3,5-tris-(bromomethyl)-benzene (CEWPICTKNGDPLPC; linker 1-6-15 via 1,3,5‑tris‑(bromomethyl)‑benzene (inferred)) | – | ~6 | ~6 | no or only minor (not significant) changes | no or only minor (not significant) changes | decrease of the efficacy of CP55940 ([1]; 10 μM peptide): ~40%; effect on basal activity (WIN55,212-2 curve) ([1]; 10 μM peptide): reduced the basal activity; effect on basal response (CP55940 curve) ([1]; 10 μM peptide): reduction in basal response; intrinsic inverse agonist activity [5]: lacks intrinsic inverse agonist activity; binding to the receptor (two-point displacement) [6]: did not bind to the receptor

— article PMC11154713 (The Journal of Biological Chemistry, 2024)
